B1: mouse SorCS2 mature extracellular segment (sSorCS2, residues 117-1072) (receptor)
chain: not shown
notes: SorCS2, mouse, residues 117-1072: the mature extracellular segment, without signal peptide and pro-peptide; Expressed from pUPE107.03 with a cystatin secretion signal peptide; For the unliganded crystal the protein was deglycosylated with EndoHf and treated with trypsin (limited proteolysis); also called SorCS2 ectodomain; wt sSorCS2; source: HEK293-ES (GnTI-) or HEK293-E, secreted, purified …

Series [1] concerns the molecule itself. Put plainly: crystal structure; sSorCS2 mixed with proNGF 1:1.1, 1 mM calcium chloride; proNGF degraded to NGF in the drop; 0.225 M MES/bis-tris pH 6.6; 3.9 Å.
The target in series [2] is B1. Nature of the series: SPR; IBIS MX96; NGF, proNGF and proBDNF amine-coupled to a P-COOH SensEye sensor; wt and mutant sSorCS2 flowed as analyte; 25 mM HEPES pH 7.4, 150 mM NaCl, 0.005 % Tween 20; 25 °C; equilibrium binding, one site saturation model (two site saturation model for proBDNF). Conditions: both partners purified.

The term stoichiometry N denotes a count of units in the complex or per binding partner. As to B1, the “stoichiometry N” value in series [1] was determined as 2.

B2: pro-brain-derived neurotrophic factor (proBDNF, residues 19-249, furin sites changed to AA) (ligand)
chain: APMKEVNVHGQGNLAYPGVRTHGTLESVNGPRAGSRGLTTTSLADTFEHVIEELLDEDQKVRPNEENHKDADLYTSRVMLSSQVPLEPPLLFLLEEYKNYLDAANMSMRVAAHSDPARRGELSVCDSISEWVTAADKKTAVDMSGGTVTVLEKVPVSKGQLKQYFYETKCNPMGYTKEGCRGIDKRHWNSQCRTTQSYVRALTMDSKKRIGWRFIRIDTSCVCTLTIKRGR
One may read the Kd as the free concentration of one partner at which half of the binding sites on the other are occupied at equilibrium, for simple one-to-one binding. A low value points to tighter binding. Regarding B2, in series [2], binding was put at a Kd of 69 nM.

Source of the values: paper PMC6065357, “Structural insights into SorCS2–Nerve Growth Factor complex formation” (Nature Communications, 2018).
